Assay results published in paper PMC9428257, “Developing high-affinity decoy receptors to treat multiple myeloma and diffuse large B cell lymphoma” (The Journal of Experimental Medicine, 2022).

Biological target: T1, human BAFF (B cell activating factor) (human, UniProt Q9Y275 134-285)
T1 construct: also called hBAFF
Assay: flow cytometry on cells; yeast-displayed sBCMA (wild type or mutant clone) incubated with increasing concentrations of soluble APRIL or BAFF; same reagents and protocols as the library sorts (PBS with 0.1% BSA, room temperature); KD from a one site-specific binding fit in GraphPad Prism
Settings: one partner purified

- Kd: 9 pM
B1: yeast-displayed mutant sBCMA V3 (S16G, H19Y, T36A, N53D) (domain or fragment, human, UniProt Q02223 1-54, looked up)
chain: MLQMAGQCSQNEYFDGLLYACIPCQLRCSSNTPPLACQRYCNASVTNSVKGTDA
notes: B cell maturation antigen (BCMA), human, extracellular domain, amino acids Met1-Ala54, with the four V3 mutations
